From publication PMC7924733 (Journal of molecular biology, 2021)
Positions count from the first letter of the chain named. In names and notes the source's numbering stands.

B1: His6-Atg16 L71C (natural protein, S. cerevisiae, UniProt Q03818 1-150, looked up)
chain: MGNFIITERKKAKEERSNPQTDSMDDLLIRRLTDRNDKEAHLNELFQDNSGAIGGNIVSHDDALLNTLAICQKELKSKEQEIRRLKEVIALKNKNTERLNDELISGTIENNVLQQKLSDLKKEHSQLVARWLKKTEKETEAMNSEIDGTK
B2: Atg16 L71C L85C L99C L120C (natural protein, S. cerevisiae, UniProt Q03818 1-150, looked up)
chain: B1 chain with L85C, L99C, L120C
B3: Atg16 L71C L120C (natural protein, S. cerevisiae, UniProt Q03818 1-150, looked up)
chain: B1 chain with L120C

Molecular target: the molecule itself
Assay: cross-linking
B1 was tested, and the “stoichiometry N” value was 2.
In the case of B2, the “stoichiometry N” value is reported as 2.
For B3, the “stoichiometry N” value was 2.
